Experimental data: PMC9482650, “Quantitative fragmentomics allow affinity mapping of interactomes” (Nature Communications, 2022)

T1: PTPN13_1, Q12923
T1 sequence (Q12923 1088-1188, limits assumed, looked up): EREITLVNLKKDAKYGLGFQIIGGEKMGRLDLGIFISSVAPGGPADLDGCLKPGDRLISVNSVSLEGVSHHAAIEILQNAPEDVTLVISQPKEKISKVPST

T2: RAPGEF6, Q8TEU7
T2 sequence (Q8TEU7 525-625, limits assumed, looked up): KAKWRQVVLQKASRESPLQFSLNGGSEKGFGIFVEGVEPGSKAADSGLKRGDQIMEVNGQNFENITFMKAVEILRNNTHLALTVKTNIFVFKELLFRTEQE

T3: APBA1_1, Q02410
T3 sequence (Q02410 651-752, limits assumed, looked up): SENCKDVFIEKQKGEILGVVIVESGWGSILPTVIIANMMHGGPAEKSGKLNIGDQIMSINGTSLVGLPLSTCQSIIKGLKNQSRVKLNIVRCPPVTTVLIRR

T4: TIAM2, Q8IVF5
T4 sequence (Q8IVF5 885-986, limits assumed, looked up): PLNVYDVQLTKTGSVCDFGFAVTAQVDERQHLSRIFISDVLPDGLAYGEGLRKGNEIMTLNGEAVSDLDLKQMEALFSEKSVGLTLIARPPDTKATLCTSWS

T5: MPDZ_12, O75970
T5 sequence (O75970 1857-1958, limits assumed, looked up): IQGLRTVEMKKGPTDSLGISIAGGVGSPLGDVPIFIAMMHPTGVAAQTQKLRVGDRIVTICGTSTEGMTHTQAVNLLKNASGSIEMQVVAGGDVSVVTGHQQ

T6: MPDZ_5, O75970
T6 sequence (O75970 695-796, limits assumed, looked up): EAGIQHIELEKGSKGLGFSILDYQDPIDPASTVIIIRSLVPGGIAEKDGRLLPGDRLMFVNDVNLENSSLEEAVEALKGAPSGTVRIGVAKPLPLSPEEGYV

T7: GRIP1_2, Q9Y3R0
T7 sequence (Q9Y3R0 145-248, limits assumed, looked up): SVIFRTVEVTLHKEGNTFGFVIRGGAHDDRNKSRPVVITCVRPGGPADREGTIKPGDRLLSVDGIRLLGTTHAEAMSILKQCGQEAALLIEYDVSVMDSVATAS

T8: RHPN1, Q8TCX5
T8 sequence (Q8TCX5 508-602, limits assumed, looked up): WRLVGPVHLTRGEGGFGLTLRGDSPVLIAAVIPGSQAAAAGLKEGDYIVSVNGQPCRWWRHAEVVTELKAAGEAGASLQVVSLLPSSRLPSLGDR

T9: PDZD2_2, O15018
T9 sequence (O15018 329-429, limits assumed, looked up): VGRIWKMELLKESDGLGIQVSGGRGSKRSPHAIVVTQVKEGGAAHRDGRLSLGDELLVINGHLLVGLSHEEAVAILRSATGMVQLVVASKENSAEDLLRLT

T10: LNX2_3, Q8N448
T10 sequence (Q8N448 463-564, limits assumed, looked up): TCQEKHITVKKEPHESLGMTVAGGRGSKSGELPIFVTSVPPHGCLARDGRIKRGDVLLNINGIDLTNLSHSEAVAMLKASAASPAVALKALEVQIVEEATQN

B1: EGLN1, Q9GZT9 (peptide)
chain: PSDSVGKDVF
B2: SCN4B, Q8IWT1 (peptide)
chain: KAEEKPPSKV

molecular target: LNX1_2, Q8TBB1; test: holdup assay; design: key: below the threshold = too weak to quantify, mostly under pKd 3.1 to 4; conditions: plain residues with an end cap or a label only (N-terminal biotin on a linker: ado-ado)
Sequence (Q8TBB1 371-470): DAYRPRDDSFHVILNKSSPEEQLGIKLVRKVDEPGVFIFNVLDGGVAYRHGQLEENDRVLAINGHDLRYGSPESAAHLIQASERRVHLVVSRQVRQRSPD

Binder	pKd
B1	below the threshold
B2	below the threshold

molecular target: T1, PTPN13_1, Q12923; test: holdup assay; design: key: below the threshold = too weak to quantify, mostly under pKd 3.1 to 4; conditions: plain residues with an end cap or a label only (N-terminal biotin on a linker: ado-ado)

Binder	pKd
B1	below the threshold
B2	below the threshold

molecular target: HTRA2, O43464; test: holdup assay; design: key: below the threshold = too weak to quantify, mostly under pKd 3.1 to 4; conditions: plain residues with an end cap or a label only (N-terminal biotin on a linker: ado-ado)
Sequence (O43464 355-458): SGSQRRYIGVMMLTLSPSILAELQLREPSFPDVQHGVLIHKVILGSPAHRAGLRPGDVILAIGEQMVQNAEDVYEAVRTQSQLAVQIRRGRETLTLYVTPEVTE

Binder	pKd
B1	below the threshold
B2	below the threshold

molecular target: T2, RAPGEF6, Q8TEU7; test: holdup assay; design: key: below the threshold = too weak to quantify, mostly under pKd 3.1 to 4; conditions: plain residues with an end cap or a label only (N-terminal biotin on a linker: ado-ado)

Binder	pKd
B1	below the threshold
B2	below the threshold

molecular target: FRMPD2_1, Q68DX3; test: holdup assay; design: key: below the threshold = too weak to quantify, mostly under pKd 3.1 to 4; conditions: plain residues with an end cap or a label only (N-terminal biotin on a linker: ado-ado)
Sequence (Q68DX3 770-861): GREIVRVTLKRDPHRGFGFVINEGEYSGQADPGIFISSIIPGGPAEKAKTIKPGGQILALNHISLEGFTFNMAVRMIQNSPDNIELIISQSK

Binder	pKd
B1	below the threshold
B2	below the threshold

molecular target: GRIP2_7, Q9C0E4; test: holdup assay; design: key: below the threshold = too weak to quantify, mostly under pKd 3.1 to 4; conditions: plain residues with an end cap or a label only (N-terminal biotin on a linker: ado-ado)
Sequence (Q9C0E4 934-1023): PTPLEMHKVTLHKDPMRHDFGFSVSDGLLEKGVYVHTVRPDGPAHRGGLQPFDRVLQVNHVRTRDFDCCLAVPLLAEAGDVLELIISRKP

Binder	pKd
B1	below the threshold
B2	below the threshold

molecular target: GRIP2_3, Q9C0E4; test: holdup assay; design: key: below the threshold = too weak to quantify, mostly under pKd 3.1 to 4; conditions: plain residues with an end cap or a label only (N-terminal biotin on a linker: ado-ado)
Sequence (Q9C0E4 238-339): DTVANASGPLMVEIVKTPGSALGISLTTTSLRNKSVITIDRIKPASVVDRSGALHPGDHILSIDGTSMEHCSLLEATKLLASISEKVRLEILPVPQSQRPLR

Binder	pKd
B1	below the threshold
B2	below the threshold

molecular target: T3, APBA1_1, Q02410; test: holdup assay; design: key: below the threshold = too weak to quantify, mostly under pKd 3.1 to 4; conditions: plain residues with an end cap or a label only (N-terminal biotin on a linker: ado-ado)

Binder	pKd
B1	below the threshold
B2	below the threshold

molecular target: MAGI2_2, Q86UL8; test: holdup assay; design: key: below the threshold = too weak to quantify, mostly under pKd 3.1 to 4; conditions: plain residues with an end cap or a label only (N-terminal biotin on a linker: ado-ado)
Sequence (Q86UL8 410-522): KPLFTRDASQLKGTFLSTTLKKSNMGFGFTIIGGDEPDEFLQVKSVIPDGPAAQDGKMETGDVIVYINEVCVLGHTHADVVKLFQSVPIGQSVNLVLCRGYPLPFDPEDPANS

Binder	pKd
B1	below the threshold
B2	below the threshold

molecular target: T4, TIAM2, Q8IVF5; test: holdup assay; design: key: below the threshold = too weak to quantify, mostly under pKd 3.1 to 4; conditions: plain residues with an end cap or a label only (N-terminal biotin on a linker: ado-ado)

Binder	pKd
B1	4.05
B2	below the threshold

molecular target: SNX27, Q96L92; test: holdup assay; design: key: below the threshold = too weak to quantify, mostly under pKd 3.1 to 4; conditions: plain residues with an end cap or a label only (N-terminal biotin on a linker: ado-ado)

Binder	pKd
B1	below the threshold
B2	below the threshold

molecular target: PARD3_3, Q8TEW0; test: holdup assay; design: key: below the threshold = too weak to quantify, mostly under pKd 3.1 to 4; conditions: plain residues with an end cap or a label only (N-terminal biotin on a linker: ado-ado)
Sequence (Q8TEW0 582-685): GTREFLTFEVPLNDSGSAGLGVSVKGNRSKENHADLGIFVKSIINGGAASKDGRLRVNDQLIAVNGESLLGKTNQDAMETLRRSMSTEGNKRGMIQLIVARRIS

Binder	pKd
B1	below the threshold
B2	below the threshold

molecular target: NHERF4_1, Q86UT5-2; test: holdup assay; design: key: below the threshold = too weak to quantify, mostly under pKd 3.1 to 4; conditions: plain residues with an end cap or a label only (N-terminal biotin on a linker: ado-ado)
Sequence (Q86UT5 other isoform, or with tags, fused parts or gaps): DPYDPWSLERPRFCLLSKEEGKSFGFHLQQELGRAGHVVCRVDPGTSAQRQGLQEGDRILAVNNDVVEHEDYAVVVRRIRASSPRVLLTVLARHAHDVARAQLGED

Binder	pKd
B1	below the threshold
B2	below the threshold

molecular target: FRMPD3, Q5JV73; test: holdup assay; design: key: below the threshold = too weak to quantify, mostly under pKd 3.1 to 4; conditions: plain residues with an end cap or a label only (N-terminal biotin on a linker: ado-ado)
Sequence (Q5JV73 12-100): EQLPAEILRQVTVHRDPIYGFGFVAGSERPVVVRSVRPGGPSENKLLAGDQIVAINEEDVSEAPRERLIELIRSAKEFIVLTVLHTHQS

Binder	pKd
B1	below the threshold
B2	below the threshold

molecular target: T5, MPDZ_12, O75970; test: holdup assay; design: key: below the threshold = too weak to quantify, mostly under pKd 3.1 to 4; conditions: plain residues with an end cap or a label only (N-terminal biotin on a linker: ado-ado)

Binder	pKd
B1	below the threshold
B2	3.49

molecular target: T6, MPDZ_5, O75970; test: holdup assay; design: key: below the threshold = too weak to quantify, mostly under pKd 3.1 to 4; conditions: plain residues with an end cap or a label only (N-terminal biotin on a linker: ado-ado)

Binder	pKd
B1	below the threshold
B2	below the threshold

molecular target: LAP2, Q96RT1; test: holdup assay; design: key: below the threshold = too weak to quantify, mostly under pKd 3.1 to 4; conditions: plain residues with an end cap or a label only (N-terminal biotin on a linker: ado-ado)
Sequence (Q96RT1 other isoform, or with tags, fused parts or gaps): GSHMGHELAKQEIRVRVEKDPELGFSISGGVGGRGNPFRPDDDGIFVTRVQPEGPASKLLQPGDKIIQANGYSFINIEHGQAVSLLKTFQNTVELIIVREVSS

Binder	pKd
B1	below the threshold
B2	3.89

molecular target: DLG4_3, P78352; test: holdup assay; design: key: below the threshold = too weak to quantify, mostly under pKd 3.1 to 4; conditions: plain residues with an end cap or a label only (N-terminal biotin on a linker: ado-ado)
Sequence (P78352 306-403): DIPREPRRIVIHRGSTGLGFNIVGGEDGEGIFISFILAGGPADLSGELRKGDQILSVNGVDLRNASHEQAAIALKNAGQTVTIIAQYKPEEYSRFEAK

Binder	pKd
B1	below the threshold
B2	below the threshold

molecular target: DLG4_1, P78352; test: holdup assay; design: key: below the threshold = too weak to quantify, mostly under pKd 3.1 to 4; conditions: plain residues with an end cap or a label only (N-terminal biotin on a linker: ado-ado)
Sequence (P78352 62-152): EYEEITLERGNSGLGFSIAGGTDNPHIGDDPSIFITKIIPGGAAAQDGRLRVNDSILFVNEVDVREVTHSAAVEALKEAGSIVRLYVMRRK

Binder	pKd
B1	below the threshold
B2	below the threshold

molecular target: T7, GRIP1_2, Q9Y3R0; test: holdup assay; design: key: below the threshold = too weak to quantify, mostly under pKd 3.1 to 4; conditions: plain residues with an end cap or a label only (N-terminal biotin on a linker: ado-ado)

Binder	pKd
B1	below the threshold
B2	below the threshold

molecular target: T8, RHPN1, Q8TCX5; test: holdup assay; design: key: below the threshold = too weak to quantify, mostly under pKd 3.1 to 4; conditions: plain residues with an end cap or a label only (N-terminal biotin on a linker: ado-ado)

Binder	pKd
B1	below the threshold
B2	below the threshold

molecular target: NOS1, P29475; test: holdup assay; design: key: below the threshold = too weak to quantify, mostly under pKd 3.1 to 4; conditions: plain residues with an end cap or a label only (N-terminal biotin on a linker: ado-ado)
Sequence (P29475 9-101): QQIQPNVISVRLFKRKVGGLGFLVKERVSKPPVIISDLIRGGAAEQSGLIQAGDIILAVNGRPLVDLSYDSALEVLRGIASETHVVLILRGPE

Binder	pKd
B1	below the threshold
B2	below the threshold

molecular target: DLG1_1, Q12959; test: holdup assay; design: key: below the threshold = too weak to quantify, mostly under pKd 3.1 to 4; conditions: plain residues with an end cap or a label only (N-terminal biotin on a linker: ado-ado)

Binder	pKd
B1	below the threshold
B2	below the threshold

molecular target: Inadl_1, Q8NI35; test: holdup assay; design: key: below the threshold = too weak to quantify, mostly under pKd 3.1 to 4; conditions: plain residues with an end cap or a label only (N-terminal biotin on a linker: ado-ado)
Sequence (Q8NI35 113-229): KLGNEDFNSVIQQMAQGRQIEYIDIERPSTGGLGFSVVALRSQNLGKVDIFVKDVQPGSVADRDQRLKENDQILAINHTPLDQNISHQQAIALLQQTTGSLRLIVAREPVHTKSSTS

Binder	pKd
B1	below the threshold
B2	below the threshold

molecular target: T9, PDZD2_2, O15018; test: holdup assay; design: key: below the threshold = too weak to quantify, mostly under pKd 3.1 to 4; conditions: plain residues with an end cap or a label only (N-terminal biotin on a linker: ado-ado)

Binder	pKd
B1	3.62
B2	3.95

molecular target: T10, LNX2_3, Q8N448; test: holdup assay; design: key: below the threshold = too weak to quantify, mostly under pKd 3.1 to 4; conditions: plain residues with an end cap or a label only (N-terminal biotin on a linker: ado-ado)

Binder	pKd
B1	below the threshold
B2	below the threshold

molecular target: DLG2_3, Q15700; test: holdup assay; design: key: below the threshold = too weak to quantify, mostly under pKd 3.1 to 4; conditions: plain residues with an end cap or a label only (N-terminal biotin on a linker: ado-ado)

Binder	pKd
B1	3.57
B2	below the threshold

molecular target: MAST2, Q6P0Q8; test: holdup assay; design: key: below the threshold = too weak to quantify, mostly under pKd 3.1 to 4; conditions: plain residues with an end cap or a label only (N-terminal biotin on a linker: ado-ado)
Sequence (Q6P0Q8 1099-1202): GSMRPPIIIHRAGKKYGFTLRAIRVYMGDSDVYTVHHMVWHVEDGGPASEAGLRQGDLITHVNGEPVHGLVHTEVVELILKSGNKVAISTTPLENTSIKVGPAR

Binder	pKd
B1	below the threshold
B2	below the threshold
